Molecular target: Rhodopsin (endogenous in mouse retina) (mouse (endogenous in retina), UniProt P15409 1-348)
Experiment: far-Western, overlay or dot blot

B1: GFP-MYO1C-790-1028 (MYO1C tail domain, also known as the cargo domain) (domain or fragment, mouse, UniProt Q9WTI7-2 790-1028, looked up)
chain: PRNVLDTSWPTPPPALREASELLRELCMKNMVWKYCRSISPEWKQQLQQKAVASEIFKGKKDNYPQSVPRLFISTRLGTEEISPRVLQSLGSEPIQYAVPVVKYDRKGYKPRPRQLLLTPSAVVIVEDAKVKQRIDYANLTGISVSSLSDSLFVLHVQREDNKQKGDVVLQSDHVIETLTKTALSADRVNNININQGSITFAGGPGRDGIIDFTSGSELLITKAKNGHLAVVAPRLNSR
B1: binds.

Reference: article doi:10.1101/2020.06.02.129890 (bioRxiv, 2020)
